Measurements from paper PMC9975500, “High level expression of nicotinamide nucleoside kinase from Saccharomyces cerevisiae and its purification and immobilization by one-step method” (Frontiers in Bioengineering and Biotechnology, 2023).

Legend:
[1] = substrate: Nc1ncnc2c1ncn2[C@@H]1O[C@H](COP(=O)(O)OP(=O)(O)OP(=O)(O)O)[C@@H](O)[C@H]1O; experiment: HPLC of NMN formed, Michaelis-Menten fit; assay type: biochemical, Saccharomyces cerevisiae; details: free enzyme, NR 1 mM, 10 mM MgCl2, 20 mM Tris-HCl pH 5.8, optimal temperature (30 °C for free enzyme)
purified protein = substrate: NC(=O)c1ccc[n+]([C@@H]2O[C@H](CO)[C@@H](O)[C@H]2O)c1; experiment: purified protein; details: free enzyme, ATP 1 mM, 10 mM MgCl2, 20 mM Tris-HCl pH 5.8, optimal temperature (30 °C for free enzyme)

B1: reScNRK1 (recombinant nicotinamide riboside kinase1; nicotinamide nucleoside kinase1) (Saccharomyces cerevisiae S288C) (protein)
chain: MTSKKVILVALSGCSSSGKTTIAKLTASLFTKATLIHEDDFYKHDNEVPVDAKYNIQNWDSPEALDFKLFGKELDVIKQTGKIATKLIHNNNVDDPFTKFHIDRQVWDELKAKYDSINDDKYEVVIVDGFMIFNNTGISKKFDLKILVRAPYEVLKKRRASRKGYQTLDSFWVDPPYYFDEFVYESYRANHAQLFVNGDVEGLLDPRKSKNIKEFINDDDTPIAKPLSWVCQEILKLCKD
notes: free enzyme
B1 showed a Km [1] of 54.27 mM, a Vmax [1] of 137 µmol/min/mg and a Km (purified protein) of 18.69 mM. For the same protein, the Vmax (purified protein) was 98.4 µmol/min/mg.
